Data from FireProtDB (doi:10.1021/bi982078m).
Where “and” joins values, the source holds several entries; their conditions need not be identical. Identical values can stand only once.

Settings: Equus caballus, pH 6, 25 °C, Absorbance, cacodylate 0.03 M, reversible: yes

Cytochrome c wild type, P00004, sequence (P00004 whole entry): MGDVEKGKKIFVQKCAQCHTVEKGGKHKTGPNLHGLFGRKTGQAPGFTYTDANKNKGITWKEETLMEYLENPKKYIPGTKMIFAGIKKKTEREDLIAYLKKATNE

Cytochrome c wild type, P00004
denaturant m value (GdnHCl, KCl 0.1-1.0 M): 3.31 kcal/mol/M
denaturant midpoint (higher = more stable) (GdnHCl, KCl 0.1-1.0 M): 2.47 M
unfolding free energy (GdnHCl, KCl 0.1-1.0 M): 8.18 kcal/mol
denaturant m value (Urea, KCl 0.1-1.0 M): 1.28 kcal/mol/M
denaturant midpoint (higher = more stable) (Urea, KCl 0.1-1.0 M): 6.26 M
unfolding free energy (Urea, KCl 0.1-1.0 M): 8.02 kcal/mol
denaturant m value (Urea, KCl 0.1 M): 1.25 kcal/mol/M and 1.37 kcal/mol/M
